Molecular target: T1, SARS-CoV-2 Omicron BA.1 spike ectodomain (S trimer) (SARS-CoV-2 Omicron BA.1, S371L | S373P | S375F | S477N | E484A)
T1 construct: also called BA.1 S trimer
Assay: cryo-EM structure
Settings: both partners purified

B1: 10-5B Fab (Fab, V domains shown)
VH: EVQLVESGGGLIQPGGSLRLSCAVSGFTVSRMSWVRQAPGKGLECVSVIYTGGNTDYADSVKGRFTISRDNSKNTLYLQMNSLRAEDTALYYCVRGSGGIHDAFDIWGQGTMVTVSS
VL: DIQMTQSPSSVSASVGDRVTITCRASQGISTWLAWYQQKPGKAPKVLINAASGLQSGVPSRFSGSGSGTDFTLTISSLQPEDFATYYCQQAHSFPPTFGPGTKLEIK
notes: also called 10-5B Fab fragments
stoichiometry N: 3 Fabs per S trimer
